For four molecules, Median (APC) and Kd results are on record in US20250250358A1.

As a reminder, the Kd is the free concentration of one partner at which half of the binding sites on the other are occupied at equilibrium, for simple one-to-one binding.

The target of experiment [1] is PD-L1 on cells (UniProt Q9NZQ7). The experiment is described as follows: flow cytometry, T24 R-WT cells incubated first with Atezolizumab Fab (50 nM); Isotype Control-647 gives 480 [Cont.].
Experiment [2] has the same target. The experiment is described as follows: flow cytometry, T24 R-WT cells incubated first with Atezolizumab Fab (50 nM); negative control [Cont.]. A general note: A flow cytometer gives signals particle by particle.
In the next experiment the target is EGFR (UniProt P00533). As to the kind of experiment: Fab KD, method not stated.

UniProt Q9NZQ7, sequence (Q9NZQ7 19-290 limits assumed): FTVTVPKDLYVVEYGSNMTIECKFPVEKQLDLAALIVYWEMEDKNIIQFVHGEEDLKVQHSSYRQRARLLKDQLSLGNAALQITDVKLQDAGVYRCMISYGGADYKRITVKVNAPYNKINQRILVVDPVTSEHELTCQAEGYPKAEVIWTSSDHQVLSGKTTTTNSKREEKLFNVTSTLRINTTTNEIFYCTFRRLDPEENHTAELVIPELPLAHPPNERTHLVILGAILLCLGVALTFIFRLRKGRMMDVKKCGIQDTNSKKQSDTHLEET

For PD-L1 (D8T4X)-647 antibody, in the experiment with PD-L1 on cells [1], the Median (APC) stood at 8120. Isotype Control-647 (antibody) returned a Median (APC) with PD-L1 on cells [2] of 480.

Turning to Necitumumab Fab, in the experiment with EGFR, the Kd was 6.1 nM.

B1: Matuzumab Fab (Fab, INN chains, looked up, V domains shown)
VH: QVQLVQSGAEVKKPGASVKVSCKASGYTFTSHWMHWVRQAPGQGLEWIGEFNPSNGRTNYNEKFKSKATMTVDTSTNTAYMELSSLRSEDTAVYYCASRDYDYDGRYFDYWGQGTLVTVSS
VL: DIQMTQSPSSLSASVGDRVTITCSASSSVTYMYWYQQKPGKAPKLLIYDTSNLASGVPSRFSGSGSGTDYTFTISSLQPEDIATYYCQQWSSHIFTFGQGTKVEIK
modifications: Fab
Molecule B1 registered a Kd with EGFR of 113 nM.
